Measured values from US20050069907A1, “Methods for using double-mutant RNA polymerases with reduced discrimination between non-canonical and canonical nucleoside triphosphates” (priority 2002, published 2005).

Assays:
Assay type in all cases: biochemical
supercoiled pT75 = test: Kinetic constants (Km, kcat) with rNTPs or dNTPs
Excerpt: 1. One first determines the Km and the kcat for each enzyme (mutant and wild-type) using the non-canonical nucleotide as a substrate and using the canonical nucleotide as a substrate, as was described previously (Patra, et al., 1992). The value “Km” expresses how readily the enzyme will bind the substrate (a larger Km implies weaker binding) and “kcat” expresses the rapidity with which the substrate, once bound by the enzyme, is reacted upon.
2. One next calculates the numerical value for kcat/Km for each enzyme and for each substrate. By broad scientific consensus, the specificity of an enzyme for a substrate is felt to be most suitably expressed by this ratio.
3. For each enzyme, one then calculates the numerical value obtained by using the value of kcat/Km for the canonical substrate in the numerator and kcat/Km for the non-canonical substrate in the denominator. This number indicates how much a given enzyme discriminates between the two substrates. […] If this value is greater than 1, then the enzyme discriminates by that factor between the two substrates; for example, if the value is 100, then the enzyme discriminates by a factor of 100 in favor of the canonical substrate compared to the non-canonical substrate. Similarly, a value less than 1 means that the enzyme discriminates in favor of the non-canonical substrate over the canonical substrate.
4. Finally, one compares the numerical value calculated in step 3 above for the wild-type (W.T.) enzyme with the value calculated in step 3 for the mutant enzyme. If the value calculated for the mutant enzyme is less than the value calculated for the wild-type enzyme, then the mutant enzyme “has a reduced discrimination for the non-canonical substrate compared to the wild-type enzyme.” For example, if the values calculated in step 3 are 100 for the wild-type enzyme and 10 for the mutant enzyme, then the discrimination of the mutant enzyme in favor of the canonical substrate (or against the non-canonical substrate) is reduced 10-fold compared to the discrimination of the wild-type enzyme.
Determination of NTP Km and kcat was as described previously (Patra, et al., 1992).
The increased utilization of dNTPs by Y639F is due to both a decreased Km and an increased kcat for dNTPs: The Km and kcat of the W.T. and Y639F polymerases with rATP, rITP and 5 different dNTPs were measured (see, Table VI).

poly(dC) = test: Apparent miscoding on homopolymeric template poly(dC); settings: poly(dC)
Method: Transcription reactions: Transcription reactions were carried out in 40 mM Tris-Cl pH 8.0, 15 mM MgCl2, and 5 mM DTT or 20 mM Manganese Citrate pH 8.0, 5 mM DTT at 37° C. Template, polymerase, and NTP concentrations were as indicated in the legends to the figures and tables. Relative activity determinations were made by taking 4 μl aliquots of reactions at 5, 10, and 20 minute time points and spotting on to DE81 filter paper. Unincorporated nucleotides were separated from incorporated nucleotides by washing the filter paper with 0.5 M KH2PO4 pH 7.0 and retained radioactive nucleotide was quantitated with a Molecular Dynamics phosphorimager. To evaluate rNTP/dNTP selectivity, reactions were run with 4 rNTPs and pT75 as template and α-P^32 rNTPs or α-P^32 dNTPs were used to label the transcripts. The relative rate of incorporation of an rNTP vs. its cognate dNTP was determined from the relative percentages of labeled rNTP vs. dNTP incorporated into DE81 retainable RNA at 5, 10, and 20 minute time points. Apparent miscoding frequencies were determined similarly, though in this instance the template was a single-stranded homopolymer and the reaction contained the complementary unlabeled rNTP, and complementary α-P^32 rNTP or one of the 3 non-complementary α-P^32 rNTPs. The relative percentages of labeled complementary vs. non-complementary rNTPs incorporated at 5, 10 and 20 minute time points gave an apparent miscoding rate. The rNTP/dNTP selectivity assay was used to test the following T7 RNAP mutants for effects on substrate discrimination: D537S, D537E, S539A, R5S1S, D552S, R627S, K631S, L637A, Y639S, Y639F, Y639A, G640A, F644A, G645A, Q649S, […], H811S, H811A, D812A, D812E, D812S, D812N, D879E+ΔF882+ΔA883, D879E+A881T+ΔA883, D879E+F884+A885, D879E+F882Y, D879E+ΔA883, D879E+F882W, D879E.
An increase in miscoding would be reflected in an increase in the rate of incorporation of the non-complementary NTP into RNA.
Numbers are averages from 2 experiments and reflect the ratio of the percentages of labeled rNTPs incorporated into RNA in reactions in which unlabeled complementary rNTPs were in great excess (0.5 mM) to labeled complementary or non-complementary rNTPs. Templates were at 0.1 mg/ml. Polymerases were at 10^−8 M in Mg^2+ buffer and 10^−7 M in Mn^2+ buffer.
*The upper number refers to results obtained in Mg^2+ buffer, the lower number to results in Mn^2+ buffer. n.d.: G640A, Y639A, Y639S were poorly active in Mn^2+ buffer, or on poly(dT) under all conditions.

poly(rC) = test: Activity on an RNA (poly(rC)) template
Method: T7 RNAP as a reverse transcriptase or RNA replicase which initiates de novo: It has been reported that T7 RNAP can use both RNA and DNA templates (Konarska and Sharp, 1989). Therefore, it was determined if the Y639F mutant would use dNTPs when transcribing an RNA template (poly(rC), see Table IV).
Numbers give mean and range from 3 experiments. Template was at 0.2 mg/ml, polymerases at 10^−6 M. Labeling NTPs were α-P^32 rGTP, α-P^32 dGTP.

[1] = rATP, ranges from 3 experiments
[2] = .5 mM GTP, mean and range from 3 experiments

W.T.: wild-type T7 RNA polymerase [reference compound]
Discrimination rNTPs vs. dNTPs: average kcat/Km of four rNTPs over average kcat/Km of four dNTPs (supercoiled pT75): about 120 fold
Kcat (supercoiled pT75; DTTP): 26 to 29 s⁻¹
Km (supercoiled pT75; DTTP): 209 to 262 µM
Kcat (supercoiled pT75; dATP): 6 to 9 s⁻¹
Km (supercoiled pT75; dATP): 2000 to 5000 µM
Kcat (supercoiled pT75; dCTP): 9 to 14 s⁻¹
Km (supercoiled pT75; dCTP): 4300 to 13500 µM
Kcat (supercoiled pT75; dGTP): 5 to 9 s⁻¹
Km (supercoiled pT75; dGTP): 602 to 701 µM
Kcat (supercoiled pT75; dUTP): 25 to 39 s⁻¹
Km (supercoiled pT75; dUTP): 4400 to 9000 µM
Kcat (supercoiled pT75; rATP): 190 to 220 s⁻¹
Km (supercoiled pT75; [1]): 34 to 68 µM
Kcat (supercoiled pT75; rITP): 170 to 230 s⁻¹
Km (supercoiled pT75; rITP): 29 to 59 µM
Relative rate of incorporation GTP/ATP (poly(dC); Mg^2+ buffer): 233
Relative rate of incorporation GTP/CTP (poly(dC); Mg^2+ buffer): 400
Relative rate of incorporation GTP/ATP (poly(dC); Mn^2+ buffer): 9.3
Relative rate of incorporation GTP/CTP (poly(dC); Mn^2+ buffer): 32
Relative rate of incorporation GTP/UTP (poly(dC); Mn^2+ buffer): 53 (Mn2+)*
Activity on poly(rC) template (poly(rC); 1 mM GTP): <.5
Activity on poly(rC) template (poly(rC); 1 mM dGTP + .5 mM GMP): <.5
Activity on poly(rC) template (poly(rC); [2]): 1000
Activity on poly(rC) (poly(rC); dGTP or dGTP+rGMP): not measurably active

Y639F: T7 RNAP with wild-type tyrosine at position 639 substituted by phenylalanine
Discrimination rNTPs vs. dNTPs: average kcat/Km of four rNTPs over average kcat/Km of four dNTPs (supercoiled pT75): about 6 fold
kcat with dNTPs less than for rNTPs (supercoiled pT75): 2-4 fold
Kcat (supercoiled pT75; DTTP): 70 to 110 s⁻¹
Km (supercoiled pT75; DTTP): 38 to 59 µM
Kcat (supercoiled pT75; dATP): 50 to 70 s⁻¹
Km (supercoiled pT75; dATP): 200 to 350 µM
Kcat (supercoiled pT75; dCTP): 50 to 90 s⁻¹
Km (supercoiled pT75; dCTP): 920 to 1600 µM
Kcat (supercoiled pT75; dGTP): 30 to 50 s⁻¹
Km (supercoiled pT75; dGTP): 185 to 264 µM
Kcat (supercoiled pT75; dUTP): 70 to 130 s⁻¹
Km (supercoiled pT75; dUTP): 52 to 92 µM
Reduced discrimination between dNTPs and rNTPs compared to wild-type (supercoiled pT75; from average kcat/Km values): ~20 fold
Kcat (supercoiled pT75; rATP): 150 to 210 s⁻¹
Km (supercoiled pT75; [1]): 53 to 125 µM
Kcat (supercoiled pT75; rITP): 180 to 200 s⁻¹
Km (supercoiled pT75; rITP): 34 to 94 µM
Relative rate of incorporation GTP/ATP (poly(dC); Mg^2+ buffer): 338
Relative rate of incorporation GTP/CTP (poly(dC); Mg^2+ buffer): 550
Relative rate of incorporation GTP/UTP (poly(dC); Mg^2+ buffer): >1760
Relative rate of incorporation GTP/ATP (poly(dC); Mn^2+ buffer): 8
Relative rate of incorporation GTP/CTP (poly(dC); Mn^2+ buffer): 40
Relative rate of incorporation GTP/UTP (poly(dC); Mn^2+ buffer): 55
Activity on poly(rC) template (poly(rC); 1 mM GTP): 62 (48-80)
Activity on poly(rC) template (poly(rC); 1 mM dGTP + .5 mM GMP): 116 (90-148)
Activity on poly(rC) template (poly(rC); [2]): 505 (358-733)
Reduction of activity on poly(rC) (poly(rC); with dGTP): ~8 fold
Reduction of activity on poly(rC) (poly(rC); with dGTP+rGMP): ~4 fold
